Experimental data as given in US9339557B2, “Photosensitizer-metal nanoparticle complex and composition containing the complex for photodynamic therapy or diagnosis” (NATIONAL CANCER CENTER, priority 2009, dated 2016).

How the values were obtained:
Type in all cases: cell-based, human
[1] = system: HT1080 cells; experiment: Cell viability after photodynamic therapy (MTT), cell line HT1080; conditions: 5 μM equivalent of photosensitizer, 15 hours, +PDT laser 670 nm, 40 mW/cm^2, 10 J/cm^2, MTT after 24 hours
Protocol: For in vitro phototoxicity tests 9,000 HT1080 cells were seeded in each well of 96-well plates. The next day, the photosensitizer-polypeptide conjugate (MMP2P) prepared in Preparation Example 2 and the photosensitizer-metal nanoparticle complex (MMP2P-GNR) prepared in Preparation Example 3 were diluted with a cell culture medium, respectively, thereby preparing an MMP2 probe (MMP2P) solution and a photosensitizer-metal nanoparticle complex (MMP2P-GNR) solution, each of which has a final concentration corresponding to 5 μM equivalent weight of the photosensitizer. Each solution was added at 200 μl per well to some wells, and the plate was maintained at 37° C. for 15 hours. Meanwhile, for the control group, the same volume of a fresh culture medium in which the photosensitizer is not included was added to the other wells. Afterwards, the cells were washed twice with a cell culture medium, and for a photodynamic therapy (PDT) group, photodynamic therapy was carried out using laser at 670 nm under conditions including a dose density of 40 mW/cm^2 and a dose of 10 J/cm^2. After 24 hours, cell viability was measured by MTT analysis.

[2] = system: BT20 cells; experiment: Cell viability after photodynamic therapy (MTT), cell line BT20; conditions: 5 μM equivalent of photosensitizer, 15 hours, +PDT laser 670 nm, 40 mW/cm^2, 10 J/cm^2, MTT after 24 hours
Protocol: 9,000 BT20 cells were seeded in each well of 96-well plates. The next day, the photosensitizer-polypeptide conjugate prepared in Preparation Example 2 and the photosensitizer-metal nanoparticle complex prepared in Preparation Example 2 were diluted with a cell culture medium, thereby preparing an MMP2 probe (MMP2P) solution and a photosensitizer-metal nanoparticle complex (MMP2P-GNR) solution, which have a final concentration corresponding to 5 μM equivalent weight of the photosensitizer. Each solution was added at 200 μl per well to some wells, and the plate was maintained at 37° C. for 15 hours. Meanwhile, for the control group, the same volume of a fresh culture medium in which the photosensitizer was not included was added. Afterwards, the cells were washed twice with a cell culture medium, and for a photodynamic therapy (PDT) group, photodynamic therapy was performed using laser at 670 nm under conditions including a light dose density of 40 mW/cm^2, and a light dose of 10 J/cm^2. After 24 hours, cell viability was measured by MTT analysis.

[3] = system: HT1080 cells overexpressing MMP2; experiment: Fluorescence activation of photosensitizer-metal nanoparticle complex, confocal microscopy; conditions: HT1080 (MMP2 overexpressing) compared with BT20 (MMP2 underexpressing); 5 μM equivalent of photosensitizer, 15 hours, 37° C.; Ex. 405 nm, Em. 646-753 nm
Protocol: HT1080 cells (human fibrosarcoma cell line) overexpressing MMP2 and BT20 cells (human mammary adenocarcinoma cell line) underexpressing MMP2 (see Bremer C. et al., Nature Medicine 7(6) 743-748, 2001) were obtained from ATCC (Manassas, Va.). MMP2-positive HT1080 (90,000 cells) and MMP2-negative BT20 cells (90,000 cells) in culture media were seeded into each wells of LabTek II Chambered Coverglass. Afterwards, the photosensitizer-metal nanoparticle complex solution prepared in Preparation Example 2 was diluted with a culture medium to have 5 μM equivalent weight of the photosensitizer, and added at 600 μl per well. The cells were incubated in an incubator at 37° C. for 15 hours. After the culture medium including the complex was removed, and the cells were washed three times with a fresh culture medium, fluorescence was observed using a confocal microscope (Ex. 405 nm, Em. 646-753 nm).

## MMP2P-GNR (CGGPLGVRGK)
[1]
  cell viability: 16%
[2]
  cell viability: 63%
[3]
  fluorescence in cells: much stronger fluorescence
